± gives the uncertainty stated by the source.
Test: amyloid nucleation score (Sup35N fusion, yeast selection) (log enrichment); library NNK3; higher = more nucleation; inactive = no reads after selection
Summary of the method: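 The nucleation score, computed with DiMSum, is the log enrichment of output over input reads, centred on the mode score of non-aggregating sequences. Sequences with under 100 input reads were dropped. Reads were generated by Illumina sequencing of plasmid inserts from psi-negative yeast with Sup35N fused to peptides of 20 random codons, induced with 100 μM copper sulfate for 24 hours and grown 7 days at 30°C on medium lacking adenine and uracil.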

| Substance | amyloid nucleation score |
| --- | --- |
| QREGSNCAILCLL | inactive |
| QRIESGPLDY | inactive |
| QSIARWTVLSFSWRTTSRKS | -0.416 ± 1.2 |
| QSLLSSLLGSYSRLEKLNVD | inactive |
| QSLVPSFDPNLCQVGVLYCC | -0.654 ± 0.84 |
| QSMWH | inactive |
| QSPSSKAK | inactive |
| QSQLGPDCRSYTGGERVLDV | inactive |
| QSRMPCSLFILVNGDHDDMA | inactive |
| QSTPYYLGFTD | 0.988 ± 0.11 |
| QSYIRKQFRIQSHISFSDNS | inactive |
| QTAFQRL | inactive |
| QTAIIANPSVGGWLSNSHVR | inactive |
| QTIRTMKRGNRISCVPAGHS | inactive |
| QTNIWYSGPIGSYHC | inactive |
| QVCYG | inactive |
| QVFSN | inactive |
| QVGPWLDNSNSFCDDIKGMC | inactive |
| QVGSRRNSS | inactive |
| QVRNSDRFSCIGSANIRKSL | inactive |
| QVSFFSQIRV | inactive |
| QVYGINLGSTGNEARYAVRD | inactive |
| QWFHVSLS | inactive |
| QWTSFLVLCCTNPRLGSSRV | 2.67 ± 0.073 |

| Substance | amyloid nucleation score |
| --- | --- |
| QYAAMATGNLYLS | inactive |
| QYCSGSLKFRGVPIFNGDDG | inactive |
| QYCSSCLLWCMKSQGLDMTR | inactive |
| QYFVP | inactive |
| QYHNQYHMIKRLYAFRARMG | inactive |
| QYISIENHPEACMQGSTCYS | inactive |
| QYKSMAGSLWFNSVQEQASK | inactive |
| QYLFCVVGGWIVRYLWPWML | inactive |
| RAFHYNSCKSVSAVLDLNVL | -0.094 ± 0.31 |
| RAGDNIFWTIAKCTRNTHVM | inactive |
| RAGVKNG | inactive |
| RAIGLGAFGIRRGGTRKWNE | -1.06 ± 2.5 |
| RAMCIESTYLVMPYTTCNQT | inactive |
| RAMLLGFSCMVWVPWGQFGK | 0.649 ± 0.22 |
| RANESTLM | inactive |
| RANVQDMTKISYVFTYTWYV | inactive |
| RAPAMGL | inactive |
| RASMYG | inactive |
| RCDKIWQASVMGSDIRDL | inactive |
| RCELCMSIKGLAVNNIR | 1.9 ± 0.1 |
| RCKIENVIYM | 2.44 ± 0.058 |
| RCNISTRFLLLWTFSFLLVY | inactive |
| RCSDWYHFTAQSS | inactive |
| RCTELVKAISLVVVYIYDEG | inactive |

| Substance | amyloid nucleation score |
| --- | --- |
| RCVLRW | 1.34 ± 0.12 |
| RCVSMEADWVVSAEFTKDVF | inactive |
| RCYFKYP | 1.32 ± 0.13 |
| RCYKKVYLMLAVRLAPFGLG | inactive |
| RCYVCRTMRACMVLAAKLEP | inactive |
| RCYVNYIRTYICAYCFAVNE | 2.39 ± 0.074 |
| RDDMGLESKQDGEP | inactive |
| RDFTSYGCFVASSSLDRSFL | inactive |
| RDGFN | inactive |
| RDIISMIVGWVLLQYLTTTY | -0.888 ± 1 |
| RDLCIPWLCRAFFPAMCVVI | inactive |
| RDLVPLDDRA | inactive |
| RDSFVFYVY | inactive |
| RDSQRSVRVTAIDG | inactive |
| REDILLRSSFSDSHVGRLKT | inactive |
| REFPRGWLLGLLCFRLYLLE | inactive |
| REGRVLVWYSYYKFYTRHYF | 0.004 ± 0.72 |
| REMFASPSIGTALRR | inactive |
| REPVRLQNKRLPRCQRREWC | inactive |
| RESVTSPILILSWEGISRCH | inactive |
| REVRNWRERVCQMRVLVVMC | inactive |
| REWRSNDGFFGSDSGVVGHT | inactive |
| RFGAGILRSSNQDSGFRVTG | inactive |
| RFKMAYFKNTAYLFNNANSV | inactive |

| Substance | amyloid nucleation score |
| --- | --- |
| RFNTDSQPAVMIVFRYNRLR | inactive |
| RFRHGDTGSTFRCWCFVS | inactive |
| RFSCCYRPLLYNQKVEWWRG | inactive |
| RFSCEYVATLTLSGRQAVKH | 0.043 ± 0.72 |
| RFSGM | inactive |
| RFTMWRNDHC | 0.421 ± 0.38 |
| RFVLQ | inactive |
| RFWRCWAMINR | inactive |
| RGGCQATVGNALNIRFFAQG | 1.72 ± 0.095 |
| RGGRTSVLLNRSMLVEK | inactive |
| RGGTASQVFMCFKLVFRSRY | -0.14 ± 0.6 |
| RGIANCPHLCIAYLMLS | inactive |
| RGINDDSPF | inactive |
| RGLRTKVGMSVRNCEYRYVM | -0.455 ± 1.1 |
| RGLVLVFVREAYRREY | 0.598 ± 0.29 |
| RGMCV | inactive |
| RGMFTFNYMNWGKDLLRPRL | inactive |
| RGPFGLYSLDILLVSQVFRR | 0.502 ± 0.23 |
| RGRGAPCARFRNVYGMPFFY | inactive |
| RGRYWWFYYLAFICMKWYSG | inactive |
| RGSWSYQILWINTVRW | -0.347 ± 0.53 |
| RHELTNRREK | inactive |
| RHEVRRKKSQ | inactive |
| RHEVYSTANYHVCSCRFFIV | 0.406 ± 0.17 |

| Substance | amyloid nucleation score |
| --- | --- |
| RHGLCFTIEAVPPPFIRWHW | -0.662 ± 1.3 |
| RHGSCMTVCVYSSMLSYRST | 0.163 ± 0.31 |
| RHLDNFNINVTLNLSFRVGM | 2.52 ± 0.089 |
| RHREAGEATTSFNFMRMSGP | inactive |
| RHRFSTSGRYFVSIRLVSSF | inactive |
| RHSLQMVRGTHSLCLWYNWV | inactive |
| RIEAFLAP | 1.12 ± 0.18 |
| RILLLDTEFRLPNLPTS | 1.89 ± 0.072 |
| RILLNANRYTMPSGVYDHRA | inactive |
| RIPVSWFNWCTWVYVL | inactive |
| RISKA | inactive |
| RISLDNTWGFL | inactive |
| RISSCSYHRVRVHVDTWAHV | inactive |
| RIVNALTSCDLFSCGSVLRR | 1.92 ± 0.1 |
| RIYQRSFIWCASMESGSGPL | 0.747 ± 0.2 |
| RKASSVFILGFVWWDHFEIL | inactive |
| RKAYATYATDRLISSDYG | inactive |
| RKEMLKMRRFRSRGCWVILS | inactive |
| RKFGWIRVAWCSKRIVYYSK | -0.324 ± 0.62 |
| RKNVELANPLFTSPWLNIMY | inactive |
| RKPFENIDS | inactive |
| RKRYFWNHAEISILKTSSSW | inactive |
| RKSDFVIVSCYQRFGNRELN | inactive |
| RKVEG | inactive |

| Substance | amyloid nucleation score |
| --- | --- |
| RKYVTRCASMMVHHYAYDTR | inactive |
| RLEGRLLCKWVCP | 1.96 ± 0.069 |
| RLFFNPVVVVIWPGVRNVGV | 0.189 ± 0.66 |
| RLFFVSMAF | inactive |
| RLFRWMPDNVTGRWMVYAWF | inactive |
| RLFTTLVRDLTENCIRFLWT | inactive |
| RLGLSAMSFCLCDSTSIATY | inactive |
| RLGSSNV | inactive |
| RLIILNVFVSDNTNWLHRIH | 1.37 ± 0.083 |
| RLILDNHDTSFCLIHGSRMI | inactive |
| RLIYHRQFFRE | inactive |
| RLLGTRSYTIWACYTCAVFM | 2.15 ± 0.088 |
| RLLLGTIYSFLKLHGDFNGR | inactive |
| RLLLMIL | inactive |
| RLMDITL | inactive |
| RLMYKMMHVSGDEECLFVMV | inactive |
| RLNVYTYAKFRRHRCKATSW | inactive |
| RLNWGFTLA | inactive |
| RLPLPL | inactive |
| RLRFLRT | inactive |
| RLRRSGVKWVVLKGGTRTWQ | inactive |
| RLRSNDSDLNRIAAIKVRGI | inactive |
| RLRVG | inactive |
| RLRVM | inactive |

| Substance | amyloid nucleation score |
| --- | --- |
| RLSAPCCWYNTLIE | 1.96 ± 0.099 |
| RLSEFGVNVAQMWATVVTSL | inactive |
| RLSHTMCRVLCHWVMSYSVS | inactive |
| RLTACASYIGINGRSRN | inactive |
| RLTRVVIMQRFIGEVRLSAL | inactive |
| RLVFNLGGYFLKWCIDCFIR | inactive |
| RLVLRDPTSTVIVRVPLGFV | -0.547 ± 1.9 |
| RMAIISSRIWFGFLAMQFVF | inactive |
| RMDADI | inactive |
| RMDWWYSGCLFMRYPALTAL | inactive |
| RMFKFGTCYKSVGPTKRAEC | inactive |
| RMHDSCFLYGISEDRDSLGN | inactive |
| RMINVSVR | inactive |
| RMKFGADIAVVHVCPMEFSG | inactive |
| RMPRQGLWMRVF | inactive |
| RMRSWMGCGRHCLWRHLEEL | inactive |
| RMRYFDVYIWSDMRNEPGGL | inactive |
| RMTMRRSSWQVEGITSLRIL | inactive |
